Test results from the supplement of paper PMC10126150.
± gives the standard deviation of the averaged measurements.

Tested on: ATP
Assay: switch fluorescence ratio, 500 uM ATP over buffer (Cy3 cluster intensity, sum of 5 cycles each) (fold (ratio)); higher = stronger signal-on switching upon ATP binding; sequences stand for … in TCGTCGGCAGCGTCAGATGTGTATAAGAGACAGTTTTTTTTTTTTTTTTTTTTTTTTT…TC
Settings: aptamer strand: ATP DNA aptamer (quencher-CACCTGGGGGAGTATTGCGGAGGAAGG + anchor), 100 nM annealed; ATP concentration: 500 uM
Procedure, shortened: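 Switching-strand clusters labelled with Cy3 on a modified Illumina MiSeq flow-cell were annealed to 100 nM quencher-labelled ATP aptamer, imaged in selection buffer, and re-imaged after 15 min with 500 uM ATP at 22 °C. This was done over five cycles with NaOH stripping and re-annealing in between. The fluorescence ratio is summed target-cycle over summed buffer-cycle Cy3 intensity per cluster, averaged per switch-domain sequence, excluding clusters outside 100-1000 RFU.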
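Further: ATP exposure 15 min at 22 °C before imaging.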

| Sequence | switch fluorescence ratio |
| --- | --- |
| TACGATAGGG | 1.21 ± 0.16 |
| TACGATATTT | 1.099 ± 0.0068 |
| TACGATGTGT | 1.03 ± 0.039 |
| TACGCCTGCA | 1.059 ± 0.0084 |
| TACGGAGGGA | 1.08 ± 0.029 |
| TACGGCTGGT | 1.008 ± 0.0031 |
| TACGGGAATG | 1.02 ± 0.036 |
| TACGGGCTTA | 1.007 ± 0.0044 |
| TACGGGGATG | 0.9963 ± 0.0056 |
| TACGGGGCTG | 1.01 ± 0.11 |
| TACGGGGGG | 1.02 ± 0.035 |
| TACGGGGGTT | 0.994 ± 0.011 |
| TACGGGGTCT | 1.04 ± 0.037 |
| TACGGGTAAT | 1.04 ± 0.019 |
| TACGGGTGTG | 1.016 ± 0.003 |
| TACGGTAGCT | 1.12 ± 0.051 |
| TACGGTGAGG | 1.02 ± 0.011 |
| TACGTAACAG | 1.24 ± 0.064 |
| TACGTAGGTG | 1.04 ± 0.031 |
| TACGTTAGTA | 1.02 ± 0.033 |
| TACGTTATGC | 1.27 ± 0.013 |
| TACGTTCCTG | 1.03 ± 0.028 |

| Sequence | switch fluorescence ratio |
| --- | --- |
| TACGTTGACC | 1.26 ± 0.016 |
| TACGTTTTAA | 0.9938 ± 0.0087 |
| TACGTTTTTT | 1.05 ± 0.07 |
| TACTAAGAAT | 2.35 ± 1.9 |
| TACTAAGAGA | 1.03 ± 0.029 |
| TACTAAGTAT | 0.996 ± 0.069 |
| TACTACTTCT | 1.02 ± 0.023 |
| TACTAGAAGA | 1.03 ± 0.039 |
| TACTCACTGT | 1.219 ± 0.0069 |
| TACTCAGGTT | 2.25 ± 1.8 |
| TACTCCGGTT | 2.02 ± 0.19 |
| TACTGAGCAG | 1.019 ± 0.003 |
| TACTGAGCAT | 1.24 ± 0.086 |
| TACTGCAGAT | 1.002 ± 0.0025 |
| TACTGCGGAA | 1.79 ± 1.2 |
| TACTGGAGTA | 1.01 ± 0.018 |
| TACTGGCTGC | 1.02 ± 0.0078 |
| TACTGGGGGT | 1.04 ± 0.074 |
| TACTGTGGTT | 1 ± 0.018 |
| TACTTAGTGG | 1.02 ± 0.017 |
| TACTTCAAGG | 1.02 ± 0.03 |
| TACTTCTCCA | 1.04 ± 0.016 |

| Sequence | switch fluorescence ratio |
| --- | --- |
| TACTTCTTTT | 0.958 ± 0.015 |
| TACTTGAATT | 1.02 ± 0.018 |
| TACTTGGACT | 1.06 ± 0.018 |
| TACTTGGCTT | 1.02 ± 0.031 |
| TACTTTAGCT | 1.109 ± 0.0069 |
| TACTTTCGGT | 1 ± 0.013 |
| TACTTTGGGA | 0.98 ± 0.043 |
| TACTTTTTAG | 1.02 ± 0.029 |
| TAGAAAAATG | 0.991 ± 0.029 |
| TAGAAAATGG | 1 ± 0.029 |
| TAGAAAATTT | 1 ± 0.022 |
| TAGAAACACT | 1.05 ± 0.02 |
| TAGAAAGGCC | 1.03 ± 0.037 |
| TAGAAAGGGA | 1.02 ± 0.039 |
| TAGAACAAAA | 0.99 ± 0.015 |
| TAGAAGGCTT | 0.9989 ± 0.0076 |
| TAGAAGGTTC | 1.17 ± 0.29 |
| TAGAAGGTTG | 0.972 ± 0.018 |
| TAGAAGTAGG | 1.01 ± 0.037 |
| TAGAATACTT | 0.996 ± 0.016 |
| TAGAATCAGC | 0.99 ± 0.07 |
| TAGACAAGAT | 1.04 ± 0.0028 |

| Sequence | switch fluorescence ratio |
| --- | --- |
| TAGACCTCCC | 1.81 ± 0.16 |
| TAGACGGGGA | 0.984 ± 0.046 |
| TAGAGAAGCA | 1.012 ± 0.0061 |
| TAGAGAATCG | 1.065 ± 0.0062 |
| TAGAGCAGGT | 1.03 ± 0.011 |
| TAGAGGCAGC | 0.999 ± 0.044 |
| TAGAGGCCGG | 1 ± 0.003 |
| TAGAGGCTGA | 0.9937 ± 0.0054 |
| TAGAGGGT | 0.9989 ± 0.0016 |
| TAGAGTGGGG | 0.994 ± 0.023 |
| TAGATAATGC | 1.075 ± 0.0049 |
| TAGATATCTG | 0.974 ± 0.0098 |
| TAGATATGTA | 1.02 ± 0.043 |
| TAGATCGTTG | 0.977 ± 0.04 |
| TAGATGAGCA | 0.965 ± 0.07 |
| TAGATGCATG | 1 ± 0.031 |
| TAGATGGCGG | 1 ± 0.013 |
| TAGATGTCCG | 0.922 ± 0.098 |
| TAGATTGTA | 1.01 ± 0.029 |
